± gives the uncertainty stated by the source.

The results in this text go back to the Human Domainome abundance scans (Beltran et al. 2025).

B1: LIM and senescent cell antigen-like-containing domain protein 2, residues 13 to 71; numbered along this chain, Q7Z4I7 (parent)
chain: AVCQRCQARFSPAERIVNSNGELYHEHCFVCAQCFRPFPEGLFYEFEGRKYCEHDFQML

This data set covers variants of B1. The data set can be described thus: abundance fitness (aPCA) (normalised: wild type 0, dead -1); higher = more abundant; growth selection in yeast, the domain comes from the species named. The note with it: Homo sapiens.
With AVCQQCQARFSPAERIVNSNGELYHEHCFVCAQCFRPFPEGLFYEFEGRKYCEHDFQML [R5Q], the abundance fitness was 0.066 ± 0.073. Turning to AVCQYCQARFSPAERIVNSNGELYHEHCFVCAQCFRPFPEGLFYEFEGRKYCEHDFQML [R5Y], the abundance fitness was 0.29 ± 0.11. In the case of AVCQPCQARFSPAERIVNSNGELYHEHCFVCAQCFRPFPEGLFYEFEGRKYCEHDFQML [R5P] it was -0.625 ± 0.15; in that of AVCQVCQARFSPAERIVNSNGELYHEHCFVCAQCFRPFPEGLFYEFEGRKYCEHDFQML [R5V], 0.119 ± 0.061. For the variant AVCQHCQARFSPAERIVNSNGELYHEHCFVCAQCFRPFPEGLFYEFEGRKYCEHDFQML [R5H], the abundance fitness amounted to 0.069 ± 0.15. Turning to AVCQECQARFSPAERIVNSNGELYHEHCFVCAQCFRPFPEGLFYEFEGRKYCEHDFQML [R5E], the abundance fitness was 0.037 ± 0.077.

AVCQWCQARFSPAERIVNSNGELYHEHCFVCAQCFRPFPEGLFYEFEGRKYCEHDFQML [R5W]: the abundance fitness is -0.184 ± 0.081. As for AVCQKCQARFSPAERIVNSNGELYHEHCFVCAQCFRPFPEGLFYEFEGRKYCEHDFQML [R5K], the abundance fitness came out at 0.052 ± 0.082. In the case of AVCQMCQARFSPAERIVNSNGELYHEHCFVCAQCFRPFPEGLFYEFEGRKYCEHDFQML [R5M] it was 0.129 ± 0.077.

AVCQCCQARFSPAERIVNSNGELYHEHCFVCAQCFRPFPEGLFYEFEGRKYCEHDFQML [R5C]: the abundance fitness is -0.379 ± 0.2. Consider AVCQICQARFSPAERIVNSNGELYHEHCFVCAQCFRPFPEGLFYEFEGRKYCEHDFQML [R5I], for which the abundance fitness came out at 0.078 ± 0.14. AVCQSCQARFSPAERIVNSNGELYHEHCFVCAQCFRPFPEGLFYEFEGRKYCEHDFQML [R5S]: the abundance fitness turned out to be 0.209 ± 0.062.

Turning to AVCQNCQARFSPAERIVNSNGELYHEHCFVCAQCFRPFPEGLFYEFEGRKYCEHDFQML [R5N], the abundance fitness is -0.081 ± 0.13.

As to AVCQACQARFSPAERIVNSNGELYHEHCFVCAQCFRPFPEGLFYEFEGRKYCEHDFQML [R5A], the abundance fitness was 0.186 ± 0.079. For AVCQGCQARFSPAERIVNSNGELYHEHCFVCAQCFRPFPEGLFYEFEGRKYCEHDFQML [R5G], the abundance fitness was found to be 0.231 ± 0.07.

As to AVCQFCQARFSPAERIVNSNGELYHEHCFVCAQCFRPFPEGLFYEFEGRKYCEHDFQML [R5F], the abundance fitness is -0.347 ± 0.15. As for AVCQDCQARFSPAERIVNSNGELYHEHCFVCAQCFRPFPEGLFYEFEGRKYCEHDFQML [R5D], the abundance fitness was found to be 0.104 ± 0.12. For the variant AVCQRCQKRFSPAERIVNSNGELYHEHCFVCAQCFRPFPEGLFYEFEGRKYCEHDFQML [A8K], the abundance fitness is 0.166 ± 0.053. With AVCQRCQGRFSPAERIVNSNGELYHEHCFVCAQCFRPFPEGLFYEFEGRKYCEHDFQML [A8G], the abundance fitness stood at 0.184 ± 0.061. As to AVCQRCQQRFSPAERIVNSNGELYHEHCFVCAQCFRPFPEGLFYEFEGRKYCEHDFQML [A8Q], the abundance fitness came out at 0.147 ± 0.061. Take AVCQRCQIRFSPAERIVNSNGELYHEHCFVCAQCFRPFPEGLFYEFEGRKYCEHDFQML [A8I]: the abundance fitness is 0.073 ± 0.073. On to AVCQRCQPRFSPAERIVNSNGELYHEHCFVCAQCFRPFPEGLFYEFEGRKYCEHDFQML [A8P], for which the abundance fitness was -0.797 ± 0.091. The result for AVCQRCQRRFSPAERIVNSNGELYHEHCFVCAQCFRPFPEGLFYEFEGRKYCEHDFQML [A8R] reads 0.181 ± 0.041.

For AVCQRCQERFSPAERIVNSNGELYHEHCFVCAQCFRPFPEGLFYEFEGRKYCEHDFQML [A8E], the abundance fitness was found to be 0.327 ± 0.077. In the case of AVCQRCQHRFSPAERIVNSNGELYHEHCFVCAQCFRPFPEGLFYEFEGRKYCEHDFQML [A8H], the abundance fitness is -0.041 ± 0.1. With AVCQRCQMRFSPAERIVNSNGELYHEHCFVCAQCFRPFPEGLFYEFEGRKYCEHDFQML [A8M], the abundance fitness worked out at 0.151 ± 0.062. Turning to AVCQRCQSRFSPAERIVNSNGELYHEHCFVCAQCFRPFPEGLFYEFEGRKYCEHDFQML [A8S], the abundance fitness was found to be 0.076 ± 0.045. Consider AVCQRCQVRFSPAERIVNSNGELYHEHCFVCAQCFRPFPEGLFYEFEGRKYCEHDFQML [A8V], for which the abundance fitness was found to be 0.071 ± 0.061. In the case of AVCQRCQTRFSPAERIVNSNGELYHEHCFVCAQCFRPFPEGLFYEFEGRKYCEHDFQML [A8T], the abundance fitness was found to be 0.015 ± 0.054.

Regarding AVCQRCQCRFSPAERIVNSNGELYHEHCFVCAQCFRPFPEGLFYEFEGRKYCEHDFQML [A8C], the abundance fitness was 0.03 ± 0.067.

AVCQRCQNRFSPAERIVNSNGELYHEHCFVCAQCFRPFPEGLFYEFEGRKYCEHDFQML [A8N]: the abundance fitness is -0.03 ± 0.08.

Turning to AVCQRCQDRFSPAERIVNSNGELYHEHCFVCAQCFRPFPEGLFYEFEGRKYCEHDFQML [A8D], the abundance fitness is -0.119 ± 0.11. AVCQRCQLRFSPAERIVNSNGELYHEHCFVCAQCFRPFPEGLFYEFEGRKYCEHDFQML [A8L]: the abundance fitness is 0.064 ± 0.038. For AVCQRCQFRFSPAERIVNSNGELYHEHCFVCAQCFRPFPEGLFYEFEGRKYCEHDFQML [A8F], the abundance fitness was -0.039 ± 0.065. AVCQRCNARFSPAERIVNSNGELYHEHCFVCAQCFRPFPEGLFYEFEGRKYCEHDFQML [Q7N]: the abundance fitness is -0.849 ± 0.12. For AVCQRCVARFSPAERIVNSNGELYHEHCFVCAQCFRPFPEGLFYEFEGRKYCEHDFQML [Q7V], the abundance fitness was -0.121 ± 0.05. In the case of AVCQRCFARFSPAERIVNSNGELYHEHCFVCAQCFRPFPEGLFYEFEGRKYCEHDFQML [Q7F] it was -0.083 ± 0.064. Take AVCQRCWARFSPAERIVNSNGELYHEHCFVCAQCFRPFPEGLFYEFEGRKYCEHDFQML [Q7W]: the abundance fitness is 0.007 ± 0.052.

In the case of AVCQRCHARFSPAERIVNSNGELYHEHCFVCAQCFRPFPEGLFYEFEGRKYCEHDFQML [Q7H], the abundance fitness turned out to be 0.003 ± 0.068. Take AVCQRCPARFSPAERIVNSNGELYHEHCFVCAQCFRPFPEGLFYEFEGRKYCEHDFQML [Q7P]: the abundance fitness is -0.802 ± 0.078. For AVCQRCKARFSPAERIVNSNGELYHEHCFVCAQCFRPFPEGLFYEFEGRKYCEHDFQML [Q7K], the abundance fitness is -0.832 ± 0.12. Take AVCQRCTARFSPAERIVNSNGELYHEHCFVCAQCFRPFPEGLFYEFEGRKYCEHDFQML [Q7T]: the abundance fitness amounted to 0.156 ± 0.051. AVCQRCMARFSPAERIVNSNGELYHEHCFVCAQCFRPFPEGLFYEFEGRKYCEHDFQML [Q7M]: the abundance fitness came out at 0.025 ± 0.053. With AVCQRCEARFSPAERIVNSNGELYHEHCFVCAQCFRPFPEGLFYEFEGRKYCEHDFQML [Q7E], the abundance fitness is -0.668 ± 0.082. The result for AVCQRCAARFSPAERIVNSNGELYHEHCFVCAQCFRPFPEGLFYEFEGRKYCEHDFQML [Q7A] reads 0.057 ± 0.061.
